Experimental findings from publication PMC3794980 are described below.

A value given as a limit tells only on which side of the number the result lay.

Assay [1] addresses HLA class II molecule DRB1*1501 (human (endogenous in EBV transformed homozygous cell lines)). The assay can be described thus: radioligand binding.
Assay [2] concerns the target HLA-A2:Ig fusion protein. The experiment in a line: fluorescence polarisation. In general terms: Fluorescence polarisation rises when a labelled molecule tumbles more slowly, as on binding a larger partner.
For assay [3], the target named is HLA-DR DRB1*0101 (human (endogenous in EBV transformed cell lines)). The experiment in a line: radioligand binding.
In assay [4] the target is HLA-DR DRB1*0301 (human (endogenous in EBV transformed cell lines)). The assay can be described thus: radioligand binding.
Assay [5] concerns the target HLA-DR DRB1*0401 (human (endogenous in EBV transformed cell lines)). The assay can be described thus: radioligand binding.
Assay [6] addresses HLA-DR DRB1*0404 (human (endogenous in EBV transformed cell lines)). The assay can be described thus: radioligand binding.
Assay [7] has as its target HLA-DR DRB1*0405 (human (endogenous in EBV transformed cell lines)). The assay can be described thus: radioligand binding.
The target of assay [8] is HLA-DR DRB1*0701 (human (endogenous in EBV transformed cell lines)). The experiment in a line: radioligand binding.
The target of assay [9] is HLA-DR DRB1*0802 (human (endogenous in EBV transformed cell lines)). The experiment in a line: radioligand binding.
Assay [10] deals with HLA-DR DRB1*0901 (human (endogenous in EBV transformed cell lines)). The experiment in a line: radioligand binding.
The target in assay [11] is HLA-DR DRB1*1101 (human (endogenous in EBV transformed cell lines)). The assay can be described thus: radioligand binding.
Assay [12] addresses HLA-DR DRB1*1302 (human (endogenous in EBV transformed cell lines)). The experiment in a line: radioligand binding.
Assay [13] deals with HLA-DR DRB1*1501 (human (endogenous in EBV transformed cell lines)). The assay can be described thus: radioligand binding.
Assay [14] concerns the target HLA-DR DRB4*0101 (human (endogenous in EBV transformed cell lines)). The experiment in a line: radioligand binding.

As a reminder, the IC50 is the point on the concentration scale where inhibition reaches its midpoint. A low value points to greater potency in that assay. Regarding DENV3 NS3_(357–371) (peptide), in assay [1], the half-maximal inhibitory concentration (IC50) is < 20 nM.
The same measure, in the same setting: with DENV3 Env_(231–245) (peptide) the figure was < 20 nM.
DENV3 Env_(106–114) (peptide) displayed an IC50 in assay [2] of 2.9 nM.
Regarding DENV3 Env_(126–140) (peptide), the IC50 in assay [1] is < 20 nM.
As for DENV3 NS5 221-237 (peptide), the IC50 worked out at 3.97 nM in assay [3]; 15 nM in assay [4]; 1.05 nM in assay [5]; 84.3 nM in [6]; 25 nM in assay [7]; 20.7 nM in [8]. The IC50 in [9] turned out to be 5.83 nM; in assay [10], 44.9 nM; in assay [11], 30.9 nM; in assay [12], 65.4 nM; in assay [13] it was 19.9 nM; in [14] it was 60.4 nM.
Regarding “DENV4 inter-serotype variant of NS3_(399–407) (peptide)”, the IC50 in assay [2] amounted to 61 nM.
